Key:
[1] = target: human fibroblast activation protein (FAP) on WI-38 fibroblasts (human) (UniProt Q12884); test: competitive FACS, WI-38 cells, Cy5-labeled peptide as competitor
mu (MOP) (h) (human) = mu (MOP) (h) (human) (UniProt P35372); test: reference compound of the radioligand binding assay (Ki Ref)
[2] = target: fibroblast activation protein (FAP) on FAP-expressing human WI-38 fibroblasts (human) (UniProt Q12884); test: competitive FACS, WI-38 cells, vs Cy5 tracer m3; D = pIC50 <=6.0
delta (DOP) (h) (human) = delta (DOP) (h) (human) (UniProt P41143); test: reference compound of the radioligand binding assay (Ki Ref)
delta (DOP) (h) (human), sequence (P41143 whole entry, stated change not applied): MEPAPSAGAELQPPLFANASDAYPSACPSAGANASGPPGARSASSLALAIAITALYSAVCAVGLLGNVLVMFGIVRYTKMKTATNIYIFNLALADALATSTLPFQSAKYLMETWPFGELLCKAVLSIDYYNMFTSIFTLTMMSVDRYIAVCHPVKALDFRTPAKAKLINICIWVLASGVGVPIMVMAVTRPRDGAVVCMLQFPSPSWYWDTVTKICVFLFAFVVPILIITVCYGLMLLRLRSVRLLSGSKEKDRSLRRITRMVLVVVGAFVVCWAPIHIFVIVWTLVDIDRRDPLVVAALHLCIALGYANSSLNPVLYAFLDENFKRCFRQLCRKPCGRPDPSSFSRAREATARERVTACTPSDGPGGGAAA

[3] = target: human fibroblast activating protein (FAP) on WI-38 fibroblasts (human) (UniProt Q12884); test: competitive FACS on WI-38 cells vs 3 nM Cy5-labeled peptide; pIC50 category D = ≤6.0

mu (MOP) (h) (human), sequence (P35372 whole entry): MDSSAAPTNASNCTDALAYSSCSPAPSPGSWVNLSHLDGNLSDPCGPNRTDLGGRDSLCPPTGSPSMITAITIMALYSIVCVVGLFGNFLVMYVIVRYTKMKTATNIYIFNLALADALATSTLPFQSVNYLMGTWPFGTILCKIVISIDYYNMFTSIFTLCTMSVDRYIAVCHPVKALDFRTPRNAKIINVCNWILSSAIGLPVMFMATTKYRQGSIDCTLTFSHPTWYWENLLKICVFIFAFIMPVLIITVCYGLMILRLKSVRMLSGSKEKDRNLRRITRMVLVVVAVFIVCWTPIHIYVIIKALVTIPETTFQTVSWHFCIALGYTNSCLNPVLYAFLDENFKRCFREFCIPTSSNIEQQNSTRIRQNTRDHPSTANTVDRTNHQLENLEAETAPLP

Substance | pIC50 Category (FACS) [1] | further results
Ac-Aad-[Cys(3MeBn)-Pro-Pro-Thr-Gln-Phe-Cys]-NH2 (peptide) | < 6 pIC50 | –
DAMGO (peptide) | – | Ki (mu (MOP) (h) (human)): 0.37 nM
DOTA-Ttds-Hci-[Cys(3MeBn)-Pro-Pro-Thr-Gln-Phe-Cys]-Bal-OH (peptide) | – | pIC50 Category (FACS) [2]: < 6 pIC50
DPDPE (peptide) | – | Ki (delta (DOP) (h) (human)): 1.2 nM
H-Ahx-[Cys(3MeBn)-Pro-Pro-Thr-Gln-Phe-Cys]-NH2 (peptide) | < 6 pIC50 | –
H-Ava-[Cys(3MeBn)-Pro-Pro-Thr-Gln-Phe-Cys]-NH2 (peptide) | < 6 pIC50 | –
H-Gab-[Cys(3MeBn)-Pro-Pro-Thr-Gln-Phe-Cys]-NH2 (peptide) | < 6 pIC50 | –
N4Ac-PPAc-Bal--Nle-[C(3MeBn)-PPTEFC]-OH (peptide) | – | pIC50 [3]: < 6 pic50
N4Ac-Ttds-Glu(AGLU′)-Nle-[Cys-(3MeBn)-Pro-Pro-Thr-Gln-Phe-Cys]-OH (peptide) | < 6 pIC50 | –
N4Ac-gGlu-Nle-[Cys-(3MeBn)-Pro-Pro-Thr-Gln-Phe-Cys]-OH (peptide) | < 6 pIC50 | –

From patent US20230212549A1, “COMPOUNDS COMPRISING A […] LIGAND AND USE THEREOF” (priority 2021, published 2023)
